# Assay results published in the supplement of paper PMC12783771.
# ± gives the standard deviation of the averaged measurements.
# B1: library; a variant is named by its letters at X, in order (parent)
# chain: MNIQIGELAKRTACPVVTIRFYEQEGLLPPPGRSRGNFRLYGEEHVERLQFIRHCRSLDMPLSXVRTLLSYRKRPDQDCGEVXMLLDEHIRQVESRIGALLELXHHXVELREACSGARPAQSCGILQXLSXCVCXTRGTTAHXSD
# Key:
# [1] = variants of: B1; assay: sfGFP reporter fluorescence (15 h) (µM FITC); higher = higher leak; details: library round: Round 3; ligand: none
# Description: (§1)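 Cell-free biosensing: 1 µL Echo-assembled CFE reactions with linear PbrR variant templates (5 nM) and pPbrR-sfGFP reporter, with 1 µM Pb, 30 µM Zn or no ligand; endpoint sfGFP fluorescence after 15 h at 30 °C calibrated as µM FITC. Round 3 ML-predicted PbrR mutants; up to 3 biological replicates.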
# [2] = variants of: B1; assay: sfGFP reporter fluorescence (15 h) (µM FITC); higher = stronger transcriptional activation; details: library round: Round 3
# Description: as §1
Variant,sfGFP reporter fluorescence [1],sfGFP reporter fluorescence ([2]; ligand: 1 µM Pb),sfGFP reporter fluorescence ([2]; ligand: 30 µM Zn)
DNKCGAAP H54C C55P H106L,0.04838 ± 0.00034,0.0446 ± 0.0014,0.0485 ± 0.0037
KIVLGDDR L62I,0.0483 ± 0.0021,0.453 ± 0.018,0.09962 ± 0.00071
LIKLGDDP V16C M60V E81A R111A,0.0752 ± 0.0081,0.0783 ± 0.012,0.0505 ± 0.0042
DNKLGAPY V133A,0.0571 ± 0.00067,0.174 ± 0.0037,0.728 ± 0.029
DNVCIDDA M60L,0.73 ± 0.014,2.2 ± 0.24,2.23 ± 0.2
KNVCMDDP V16C,1.32 ± 0.056,3.46 ± 0.1,3.28 ± 0.18
DNKCGAAP H54C C55A,0.912 ± 0.075,1.67 ± 0.091,1.92 ± 0.15
KNVCMDDP E81A,2.21 ± 0.21,3.01 ± 0.4,2.71 ± 0.34
KFVLGDDP I90A H106A,0.0469 ± 0.002,0.441 ± 0.013,0.0549 ± 0.0013
NNKCMDDP M60L P61N,2.66 ± 0.24,3.55 ± 0.13,3.4 ± 0.14
DNRCIDAK G124A,0.395 ± 0.042,1.51 ± 0.12,2.32 ± 0.17
KCVCMDDP V16C,0.185 ± 0.012,1.75 ± 0.16,0.434 ± 0.039
KNVCGADP M60L,3.05 ± 0.41,3.59 ± 0.26,3.01 ± 0.067
DNKLGDDP,0.0412 ± 0.002,0.0516 ± 0.0024,0.416 ± 0.055
LIVCGAAP H54C C55P H106L,0.0444 ± 0.0015,0.0432 ± 0.00085,0.0495 ± 0.0022
KNVCMDDP V16C P61N,0.0997 ± 0.0099,0.636 ± 0.067,0.579 ± 0.061
KNMCMDDP P61N,1.45 ± 0.17,2.43 ± 0.21,2.66 ± 0.22
LCKCGAAP V16C H54C C55P H106L,0.0465 ± 0.0012,0.04402 ± 0.00034,0.0492 ± 0.00085
DCKVGDDP V82I L85M,0.0458 ± 0.0022,0.329 ± 0.034,0.128 ± 0.0044
KNVLGDDR I90C H106A,0.0676 ± 0.0026,0.502 ± 0.032,0.74 ± 0.058
DNRLHCDL E109L,0.0447 ± 0.0052,0.094 ± 0.0039,0.23 ± 0.0064
KNKCGADP M60L P61N,2.59 ± 0.17,2.95 ± 0.29,2.51 ± 0.32
